The text below walks through data of paper PMC8960973, “Pretransition state and apo structures of the filament-forming enzyme SgrAI elucidate mechanisms of activation and substrate specificity” (The Journal of Biological Chemistry, 2022).

Some results are limits rather than exact numbers.

Data set [1] deals with T1, SgrAI restriction endonuclease (UniProt Q9F6L0 1-339).
T1 sequence: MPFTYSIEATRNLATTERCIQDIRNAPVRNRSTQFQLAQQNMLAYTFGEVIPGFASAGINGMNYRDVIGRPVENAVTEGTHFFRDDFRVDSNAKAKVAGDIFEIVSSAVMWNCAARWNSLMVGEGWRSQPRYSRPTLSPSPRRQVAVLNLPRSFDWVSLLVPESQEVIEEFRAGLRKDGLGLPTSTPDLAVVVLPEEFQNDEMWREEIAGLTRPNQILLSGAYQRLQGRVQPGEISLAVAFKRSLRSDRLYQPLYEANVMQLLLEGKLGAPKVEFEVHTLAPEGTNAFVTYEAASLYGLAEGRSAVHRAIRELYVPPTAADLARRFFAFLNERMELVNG
The data set is described as follows: cryo-EM structure (2.7 A); Ca2+ (sites A and B), filamentous, intact scissile phosphate; EM sample buffer not given in the material; Ca2+ in place of Mg2+; SgrAI stored after SEC in 25 mM Tris-HCl pH 8, 150 mM NaCl, 1 mM DTT. The settings on record: protein: recombinant; chain copies: 2; blunt.

Data set [2] concerns the molecule itself. Description: crystal structure; DNA-free (apo) SgrAI with Ca2+; hanging drop, 5% PEG 4000, 0.1 M imidazole pH 6.5, 0.1 M NaCl, 5 mM Ca(OAc)2, 17 °C; two chains per asymmetric unit forming the dimer.
Data set [3] deals with the molecule itself. Description: cryo-EM structure; run-on oligomeric filaments of SgrAI dimers bound to 40 bp primary site DNA (CACCGGTG, intact scissile phosphate); 4.9 uM SgrAI, 41 uM dsDNA, 10 mM Ca2+, room temperature 1 h; helical symmetry rise 21.2 A, twist -85.8 deg.

B1: 40-1 (40 bp primary site DNA) (dsDNA)
DNA 1: GATGCGTGGGTCTTCACACCGGTGGATGCGTGGGTCTTCA
DNA 2: TGAAGACCCACGCATCCACCGGTGTGAAGACCCACGCATC
In the case of B1, in data set [1], the binding result is given as “binds”.

B2: SgrAI type II restriction endonuclease, wildtype (enzyme)
chain: T1 sequence
notes: homodimer of 74 kDa; in the crystal it is DNA-free with Ca2+; also called SgrAI dimer; source: E. coli BL21 (DE3), purified (Talon resin, heparin FF, Superdex-200 SEC)
The term stoichiometry N denotes a count of units in the complex or per binding partner. Turning to B2, the “stoichiometry N” value in data set [2] was 2 chains per dimer; in data set [3], < 10 DBDs (DNA-bound SgrAI dimers) per filament.
